Measurements published in paper PMC10912200 (Nature Communications, 2024).

How the values were obtained:
Conditions in all cases: both partners purified
[1] = target: T1, TcsH^2210-2618, His-tagged (Paeniclostridium sordellii, UniProt M9ZTT7 2210-2618); assay: pull-down
T1 construct: not shown: His, C-terminal, kept
T1 sequence: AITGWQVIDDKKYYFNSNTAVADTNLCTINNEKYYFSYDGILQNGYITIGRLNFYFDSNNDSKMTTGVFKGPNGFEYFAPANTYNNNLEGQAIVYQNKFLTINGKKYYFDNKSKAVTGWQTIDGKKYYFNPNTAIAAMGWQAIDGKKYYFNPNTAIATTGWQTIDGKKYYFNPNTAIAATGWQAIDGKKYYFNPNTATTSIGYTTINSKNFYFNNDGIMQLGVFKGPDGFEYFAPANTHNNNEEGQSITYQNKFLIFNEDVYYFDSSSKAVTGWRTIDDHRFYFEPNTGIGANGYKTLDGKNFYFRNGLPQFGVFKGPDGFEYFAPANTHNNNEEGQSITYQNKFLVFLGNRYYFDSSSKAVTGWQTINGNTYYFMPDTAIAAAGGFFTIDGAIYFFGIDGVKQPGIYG

[2] = target: T1, TcsH^2210-2618, His-tagged; assay: BLI
MBP-fused TcsH^2236-2618 = target: T2, MBP-fused TcsH^2236-2618 (Paeniclostridium sordellii, UniProt M9ZTT7 2236-2618); assay: BLI
T2 construct: source: E. coli BL21(DE3), purified (Amylose resin, SEC)
T2 sequence: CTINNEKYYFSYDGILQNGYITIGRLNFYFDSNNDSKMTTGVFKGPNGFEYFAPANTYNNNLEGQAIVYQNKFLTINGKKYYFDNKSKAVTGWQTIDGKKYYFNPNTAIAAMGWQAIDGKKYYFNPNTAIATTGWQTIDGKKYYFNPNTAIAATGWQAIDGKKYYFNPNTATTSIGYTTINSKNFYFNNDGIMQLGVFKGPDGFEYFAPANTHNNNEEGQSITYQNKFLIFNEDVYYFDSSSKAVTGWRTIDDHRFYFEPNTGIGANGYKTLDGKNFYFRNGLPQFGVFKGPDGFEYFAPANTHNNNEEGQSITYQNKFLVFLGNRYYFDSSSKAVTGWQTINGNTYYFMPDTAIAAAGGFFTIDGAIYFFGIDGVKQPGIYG

Binder | binding result [1] | Kd [2] [nM] | Kd (MBP-fused TcsH^2236-2618) [nM]
Fc-His-TMPRSS2^ECD [change] (Fc fusion, source: Expi293F, transfected, purified from the supernatant (TALON resin, SEC)) WKFMGSKCSNSGIECDSSGTCINPSNWCDGVSHCPGGEDENRCVRLYGPNFILQVYSSQRKSWHPVCQDDWNENYGRAACRDMGYKNNFYSSQGIVDDSGSTSFMKLNTSAGNVDIYKKLYHSDACSSKAVVSLRCIACGVNLNSSRQSQIVGGESALPGAWPWQVSLHVQNVHVCGGSIITPEWIVTAAHCVEKPLNNPWHWTAFAGILRQSFMFYGAGYQVEKVISHPNYDSKTKNNDIALMKLQKPLTFNDLVKPVCLPNPGMMLQPEQLCWISGWGATEEKGKTSEVLNAAKVLLIETQRCNSRYVYANLITPAMICAGFLQGNVDSCQGDSGGPLVTSKNNIWWLIGDTSWGSGCAKAYRPGVYGNVMVFTDWIYRQMRADG | binds |  | 
Fc-His-TMPRSS2^ECD (Fc fusion) WKFMGSKCSNSGIECDSSGTCINPSNWCDGVSHCPGGEDENRCVRLYGPNFILQVYSSQRKSWHPVCQDDWNENYGRAACRDMGYKNNFYSSQGIVDDSGSTSFMKLNTSAGNVDIYKKLYHSDACSSKAVVSLRCIACGVNLNSSRQSQIVGGESALPGAWPWQVSLHVQNVHVCGGSIITPEWIVTAAHCVEKPLNNPWHWTAFAGILRQSFMFYGAGYQVEKVISHPNYDSKTKNNDIALMKLQKPLTFNDLVKPVCLPNPGMMLQPEQLCWISGWGATEEKGKTSEVLNAAKVLLIETQRCNSRYVYDNLITPAMICAGFLQGNVDSCQGDSGGPLVTSKNNIWWLIGDTSWGSGCAKAYRPGVYGNVMVFTDWIYRQMRADG |  | 0.37 | 0.75
Fc-His-TMPRSS2^ECD [change] (Fc fusion, source: Expi293F, transfected, purified from the supernatant (TALON resin, SEC)) WKFMGSKCSNSGIECDSSGTCINPSNWCDGVSHCPGGEDENRCVRLYGPNFILQVYSSQRKSWHPVCQDDWNENYGRAACRDMGYKNNFYSSQGIVDDSGSTSFMKLNTSAGNVDIYKKLYHSDACSSKAVVSLRCIACGVNLNSSRQSQIVGGESALPGAWPWQVSLHVANVHVCGGSIITPEWIVTAAHCVEKPLNNPWHWTAFAGILRQSFMFYGAGYQVEKVISHPNYDSKTKNNDIALMKLQKPLTFNDLVKPVCLPNPGMMLQPEQLCWISGWGATEEKGKTSEVLNAAKVLLIETQRCNSRYVYDNLITPAMICAGFLQGNVDSCQGDSGGPLVTSKNNIWWLIGDTSWGSGCAKAYRPGVYGNVMVFTDWIYRQMRADG | binds |  | 
Fc-His-TMPRSS2^ECD [change] (Fc fusion, source: Expi293F, transfected, purified from the supernatant (TALON resin, SEC)) WKFMGSKCSNSGIECDSSGTCINPSNWCDGVSHCPGGEDENRCVRLYGPNFILQVYSSQRKSWHPVCQDDWNENYGRAACRDMGYKNNFYSSQGIVDDSGSTSFMKLNTSAGNVDIYKKLYHSDACSSKAVVSLRCIACGVNLNSSRQSQIVGGESALPGAWPWQVSLHVQNVHVCGGSIITPEWIVTAAHCVEKPLNNPWAWTAFAGILRQSFMFYGAGYQVEKVISHPNYDSKTKNNDIALMKLQKPLTFNDLVKPVCLPNPGMMLQPEQLCWISGWGATEEKGKTSEVLNAAKVLLIETQRCNSRYVYDNLITPAMICAGFLQGNVDSCQGDSGGPLVTSKNNIWWLIGDTSWGSGCAKAYRPGVYGNVMVFTDWIYRQMRADG | binds |  | 
Fc-His-TMPRSS2^ECD [change] (Fc fusion, source: Expi293F, transfected, purified from the supernatant (TALON resin, SEC)) WKFMGSKCSNSGIECDSSGTCINPSNWCDGVSHCPGGEDENRCVRLYGPNFILQVYSSQRKSWHPVCQDDWNENYGRAACRDMGYKNNFYSSQGIVDDSGSTSFMKLNTSAGNVDIYKKLYHSDACSSKAVVSLRCIACGVNLNSSRQSQIVGGESALPGAWPWQVSLHRQNVHVCGGSIITPEWIVTAAHCVEKPLNNPWHWTAFAGILRQSFMFYGAGYQVEKVISHPNYDSKTKNNDIALMKLQKPLTFNDLVKPVCLPNPGMMLQPEQLCWISGWGATEEKGKTSEVLNAAKVLLIETQRCNSRYVYDNLITPAMICAGFLQGNVDSCQGDSGGPLVTSKNNIWWLIGDTSWGSGCAKAYRPGVYGNVMVFTDWIYRQMRADG | binds |  | 
Fc-His-TMPRSS2^ECD [change] (Fc fusion, source: Expi293F, transfected, purified from the supernatant (TALON resin, SEC)) WKFMGSKCSNSGIECDSSGTCINPSNWCDGVSHCPGGEDENRCVRLYGPNFILQVYSSQRKSWHPVCQDDWNENYGRAACRDMGYKNNFYSSQGIVDDSGSTSFMKLNTSAGNVDIYKKLYHSDACSSKAVVSLRCIACGVNLNSSRQSQIVGGESALPGAWPWQVSLHVQNVHVCGGSIITPEWIVTAAHCVEKPLNNPWHWTAFAGILRQSFMFYGAGYQVEKVISHPNYDSKTKNNDIALMKLQKPLTFNDLVKPVCLPNPGMMLQPEQLCWISGWGATEEKGKTSEVLNAAKVLLIETQRCNSRYVYDNRITPAMICAGFLQGNVDSCQGDSGGPLVTSKNNIWWLIGDTSWGSGCAKAYRPGVYGNVMVFTDWIYRQMRADG | binds |  | 
Fc-His-TMPRSS2^ECD [change] (Fc fusion, source: Expi293F, transfected, purified from the supernatant (TALON resin, SEC)) WKFMGSKCSNSGIECDSSGTCINPSNWCDGVSHCPGGEDENRCVRLYGPNFILQVYSSQRKSWHPVCQDDWNENYGRAACRDMGYKNNFYSSQGIVDDSGSTSFMKLNTSAGNVDIYKKLYHSDACSSKAVVSLRCIACGVNLNSSRQSQIVGGESALPGAWPWQVSLHVQNVHVCGGSIITPEWIVTAAHCVEKPRNNPWHWTAFAGILRQSFMFYGAGYQVEKVISHPNYDSKTKNNDIALMKLQKPLTFNDLVKPVCLPNPGMMLQPEQLCWISGWGATEEKGKTSEVLNAAKVLLIETQRCNSRYVYDNLITPAMICAGFLQGNVDSCQGDSGGPLVTSKNNIWWLIGDTSWGSGCAKAYRPGVYGNVMVFTDWIYRQMRADG | binds |  | 
